How the values were obtained:
[1] = target: T1, human CEA on cells (MKN45, LOVO, NCI-H2122, LS174T, CT26/CEA) (human, UniProt P06731 35-685); experiment: flow cytometry on MKN45 cells, no soluble CEA, anti-huFc-APC
T1 construct: Full-length human CEA, endogenous on tumour cell lines or transduced; also called native CEA on living cells; huCEA surface protein
T1 sequence: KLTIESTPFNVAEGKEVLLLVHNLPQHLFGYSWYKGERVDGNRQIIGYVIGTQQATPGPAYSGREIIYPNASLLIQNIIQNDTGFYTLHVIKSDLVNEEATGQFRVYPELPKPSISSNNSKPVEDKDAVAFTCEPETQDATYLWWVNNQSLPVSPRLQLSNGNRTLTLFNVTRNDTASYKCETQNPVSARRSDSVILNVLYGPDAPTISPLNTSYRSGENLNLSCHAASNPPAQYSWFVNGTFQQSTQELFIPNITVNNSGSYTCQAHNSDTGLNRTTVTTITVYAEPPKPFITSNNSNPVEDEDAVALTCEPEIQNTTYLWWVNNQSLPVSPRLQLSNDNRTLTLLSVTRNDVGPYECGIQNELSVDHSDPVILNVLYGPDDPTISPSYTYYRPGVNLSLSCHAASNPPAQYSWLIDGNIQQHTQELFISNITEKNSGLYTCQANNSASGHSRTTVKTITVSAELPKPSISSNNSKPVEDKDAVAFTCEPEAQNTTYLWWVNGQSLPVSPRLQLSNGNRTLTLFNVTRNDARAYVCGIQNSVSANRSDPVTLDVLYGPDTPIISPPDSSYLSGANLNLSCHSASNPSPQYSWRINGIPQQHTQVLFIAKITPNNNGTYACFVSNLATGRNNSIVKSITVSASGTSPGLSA
Method: (§1) The mixtures were then incubated with 2×10^5 CEA-expressing cells, such as MKN45 cells, for 30 minutes at 4° C. The cells were stained with secondary antibody anti-huFc-APC (Cat. No. 409320, BioLegend, USA) and analyzed by flow cytometry.

[2] = target: T2, recombinant human CEACAM6 (AA 1-320, C-terminal 6xHis) (human, UniProt P40199 35-320); experiment: antigen ELISA, antigen coated at 10 ug/ml, HRP anti-human Fc
T2 sequence: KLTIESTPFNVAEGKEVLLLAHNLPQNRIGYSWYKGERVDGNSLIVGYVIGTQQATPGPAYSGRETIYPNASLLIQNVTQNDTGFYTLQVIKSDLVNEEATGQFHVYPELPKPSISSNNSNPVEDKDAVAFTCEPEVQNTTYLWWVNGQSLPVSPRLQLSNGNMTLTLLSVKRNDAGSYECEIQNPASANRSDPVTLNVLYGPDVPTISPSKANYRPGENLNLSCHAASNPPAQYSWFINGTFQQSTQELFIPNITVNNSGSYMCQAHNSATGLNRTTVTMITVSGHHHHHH
Method: (§2) Cell fluorescence was quantified using a flow cytometer (Guava easyCyte™ 8HT, Merck-Millipore, USA). For antigen ELISA, CEACAM1(SEQ ID NO:64) (Cat. No. 10822-H08H, Sino Biological, China), CHIM (SEQ ID NO:63), CEA (SEQ ID NO:55) or CEACAM6 (SEQ ID NO:57) were coated in 96-well plates at a concentration of 10 μg/ml overnight at 4° C.

[3] = target: T3, CEACAM1 (Cat. No. 10822-H08H, Sino Biological) (Homo sapiens (Human), UniProt P13688 35-428); experiment: as above
T3 construct: Bought protein
T3 sequence: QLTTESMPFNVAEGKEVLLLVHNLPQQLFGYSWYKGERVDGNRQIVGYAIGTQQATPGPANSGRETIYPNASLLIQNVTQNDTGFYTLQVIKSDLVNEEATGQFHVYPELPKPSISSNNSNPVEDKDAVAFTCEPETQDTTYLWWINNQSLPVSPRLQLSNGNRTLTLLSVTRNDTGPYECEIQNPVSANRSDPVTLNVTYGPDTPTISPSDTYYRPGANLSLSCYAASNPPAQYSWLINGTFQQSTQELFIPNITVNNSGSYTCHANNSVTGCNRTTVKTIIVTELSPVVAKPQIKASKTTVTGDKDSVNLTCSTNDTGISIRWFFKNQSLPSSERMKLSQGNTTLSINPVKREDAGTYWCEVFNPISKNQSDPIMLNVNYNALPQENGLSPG
Method: as §2

[4] = target: T4, CEACAM6 (bar group in Fig. 9B, flow cytometry) (human, UniProt P40199); experiment: flow cytometry, Alexa Fluor 647 anti-human IgG Fc
T4 construct: on cells (flow cytometry)
T4 sequence (single chain, looked up): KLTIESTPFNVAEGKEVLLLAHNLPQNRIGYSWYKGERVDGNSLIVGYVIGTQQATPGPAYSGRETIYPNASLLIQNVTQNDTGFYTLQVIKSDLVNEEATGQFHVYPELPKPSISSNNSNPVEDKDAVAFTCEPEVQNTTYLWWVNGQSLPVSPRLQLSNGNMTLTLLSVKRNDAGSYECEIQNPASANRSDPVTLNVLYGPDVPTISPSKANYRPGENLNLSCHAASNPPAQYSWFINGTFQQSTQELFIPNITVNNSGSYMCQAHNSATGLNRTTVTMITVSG
Method: as §2

[5] = target: T1, human CEA on cells (MKN45, LOVO, …); experiment: flow cytometry on MKN45 cells, BGA5384 premixed with 2.00 ug/ml recombinant soluble CEA (competitor), anti-huFc-APC
Method: as §1

[6] = target: T1, human CEA on cells (MKN45, LOVO, …); experiment: flow cytometry (MFI) on CEA-expressing MKN45 cells
Method: For flow cytometry, CEA-expressing MKN45 cells (10^5 cells/well) were incubated with various concentrations of purified affinity-matured antibodies, followed by binding with Alexa Fluor-647-labeled anti-hu IgG Fc antibody (Cat. No. 409320, BioLegend, USA). Cell fluorescence was quantified using a flow cytometer (Guava easyCyte™ 8HT, Merck-Millipore, USA).

[7] = target: T1, human CEA on cells (MKN45, LOVO, …); experiment: flow cytometry on MKN45 cells, BGA5384 premixed with 0.50 ug/ml recombinant soluble CEA (competitor), anti-huFc-APC
Method: as §1

EC50 (read off the curve) [1]: ~0.7 µg/mL | binding result [2]: no binding | binding result [3]: no binding | binding result [4]: no binding | EC50 (read off the curve) [5]: ~2 µg/mL | EC50 [6]: 2.92 µg/mL | EC50 (read off the curve) [7]: ~1 µg/mL
B1: BGA5384 (antibody, human IgG1, kappa, V domains shown)
VH: QVQLVQSGAEVKKPGASVKVSCKASGYIFTSYYLHWVRQAPGQGLEWIGYINPQTGKTSYAQKFQGRVTMTRDTSTSTVYMELSSLRSEDTAVYYCAREYGNYNYPLDYWGQGTLVTVSS
VL: DIQMTQSPSSLSASVGDRVTITCRASENQYGYLAWYQQKPGKVPKLLIYNYKNLVEGVPSRFSGSGSGTDFTLTISSLQPEDVATYYCQHHLGTPYTFGQGTKVEIKR
notes: BGA6710 with Y57K in VH; human IgG1 format; also called BGA7592-1K

Reference: patent publication US20250115677A1, “Anti-CEA Antibody Drug Conjugates and Methods of Use” (BeiGene Switzerland GmbH, priority 2022, published 2025)
